Assay results from patent publication US5705608, “Human IL-2 receptor γ chain molecule” (Ajinomoto Co., Inc., dated 1998).
Blank lines part the entries; values can stand above or below the binder they belong to.

Legend:
IL-2 labelled with 125I [1] = molecular target: T1, IL-2 labelled with 125I (human, UniProt P60568, 125I label by the chloramine-T method); assay: 125I-IL-2 binding to Lβγ-9 cells at 4° C., Scatchard plot
Protocol: (§1) The radioactivity of ^125I-IL-2 bound or not bound to the cells was determined. The value for the background or the binding radioactivity in the case of addition of unlabelled IL-2 was subtracted from each of the measurements to calculate the binding amounts, the binding ability and the binding affinity of IL-2 to the receptor as determined by a Scatchard plot.

IL-2 labelled with 125I [2] = molecular target: T1, IL-2 labelled with 125I; assay: 125I-IL-2 binding to Lαβγ-4 cells at 4° C., Scatchard plot, biphasic, low affinity component
Protocol: as §1

IL-2 labelled with 125I [3] = molecular target: T1, IL-2 labelled with 125I; assay: 125I-IL-2 binding to Lαβγ-4 cells at 4° C., Scatchard plot, biphasic, high affinity component
Protocol: as §1

Kd (IL-2 labelled with 125I [1]): 4.6 nM
B1: IL-2 receptor β and γ chains on Lβγ-9 cells (L929 cells with IL-2 receptor β and γ chain expression) (receptor)
chain 1: AVNGTSQFTCFYNSRANISCVWSQDGALQDTSCQVHAWPDRRRWNQTCELLPVSQASWACNLILGAPDSQKLTTVDIVTLRVLCREGVRWRVMAIQDFKPFENLRLMAPISLQVVHVETHRCNISWEISQASHYFERHLEFEARTLSPGHTWEEAPLLTLKQKQEWICLETLTPDTQYEFQVRVKPLQGEFTTWSPWSQPLAFRTKPAALGKDTIPWLGHLLVGLSGAFGFIILVYLLINCRNTGPWLKKVLKCNTPDPSKFFSQLSSEHGGDVQKWLSSPFPSSSFSPGGLAPEISPLEVLERDKVTQLLLQQDKVPEPASLSSNHSLTSCFTNQGYFFFHLPDALEIEACQVYFTYDPYSEEDPDEGVAGAPTGSSPQPLQPLSGEDDAYCTFPSRDDLLLFSPSLLGGPSPPSTAPGGSGAGEERMPPSLQERVPRDWDPQPLGPPTPGVPDLVDFQPPPELVLREAGEEVPDAGPREGVSFPWSRPPGQGEFRALNARLPLNTDAYLSLQELQGQDPTHLV
chain 2: LNTTILTPNGNEDTTADFFLTTMPTDSLSVSTLPLPEVQCFVFNVEYMNCTWNSSSEPQPTNLTLHYWYKNSDNDKVQKCSHYLFSEEITSGCQLQKKEIHLYQTFVVQLQDPREPRRQATQMLKLQNLVIPWAPENLTLHKLSESQLELNWNNRFLNHCLEHLVQYRTDWDHSWTEQSVDYRHKFSLPSVDGQKRYTFRVRSRFNPLCGSAQHWSEWSHPIHWGSNTSKENPFLFALEAVVISVGSMGLIISLLCVYFWLERTMPRIPTLKNLEDLVTEYHGNFSAWSGVSKGLAESLQPDYSERLCLVSEIPPKGGALGEGPGASPCNQHSPYWAPPCYTLKPET

Kd (IL-2 labelled with 125I [2]): 2.4 nM | Kd (IL-2 labelled with 125I [3]): 0.077 nM
B2: IL-2 receptor α, β and γ chains on Lαβγ-4 cells (L929 with IL-2 receptor α, β and γ chain expression) (receptor)
chain 1: ELCDDDPPEIPHATFKAMAYKEGTMLNCECKRGFRRIKSGSLYMLCTGNSSHSSWDNQCQCTSSATRNTTKQVTPQPEEQKERKTTEMQSPMQPVDQASLPGHCREPPPWENEATERIYHFVVGQMVYYQCVQGYRALHRGPAESVCKMTHGKTRWTQPQLICTGEMETSQFPGEEKPQASPEGRPESETSCLVTTTDFQIQTEMAATMETSIFTTEYQVAVAGCVFLLISVLLLSGLTWQRRQRKSRRTI
chain 2: B1 chain 1
chain 3: B1 chain 2
